Measured values as given in US20250043022A1 (JIANGSU HENGRUI PHARMACEUTICALS, published 2025).

Target: T1, human PSMA on cells (Cho-hPSMA, CHO-K1 cells overexpressing full-length human PSMA) (human, UniProt Q04609 1-750)
T1 construct: whole, on cells; also called cell surface PSMA; PSMA-expressing Lncap cells
Assay: hybridoma screening on cells

T1 sequence (Q04609 whole entry): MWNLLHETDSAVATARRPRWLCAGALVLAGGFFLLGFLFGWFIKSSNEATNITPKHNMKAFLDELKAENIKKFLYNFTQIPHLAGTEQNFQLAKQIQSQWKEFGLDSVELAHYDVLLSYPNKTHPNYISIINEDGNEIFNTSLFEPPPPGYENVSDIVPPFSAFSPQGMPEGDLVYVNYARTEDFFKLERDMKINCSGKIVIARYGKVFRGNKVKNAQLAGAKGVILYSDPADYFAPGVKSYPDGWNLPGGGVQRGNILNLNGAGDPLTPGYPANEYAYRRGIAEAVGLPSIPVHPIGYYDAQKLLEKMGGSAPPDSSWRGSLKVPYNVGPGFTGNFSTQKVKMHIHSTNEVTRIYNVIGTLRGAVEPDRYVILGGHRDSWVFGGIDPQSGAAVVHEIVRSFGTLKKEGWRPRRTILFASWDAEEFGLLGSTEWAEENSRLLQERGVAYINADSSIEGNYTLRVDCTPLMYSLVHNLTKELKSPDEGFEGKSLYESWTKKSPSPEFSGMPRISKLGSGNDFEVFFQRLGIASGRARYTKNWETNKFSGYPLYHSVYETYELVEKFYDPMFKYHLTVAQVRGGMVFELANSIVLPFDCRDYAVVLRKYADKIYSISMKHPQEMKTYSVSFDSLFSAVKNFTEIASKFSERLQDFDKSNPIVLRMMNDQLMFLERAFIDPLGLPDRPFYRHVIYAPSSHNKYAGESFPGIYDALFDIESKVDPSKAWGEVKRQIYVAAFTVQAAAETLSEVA

Binder	binding result
murine antibody 2 (antibody, V domains shown, murine hybridoma antibody) VH: EVKLVESEGGLVQPGSSMKLSCTASGFTFSDYYMAWVRQVPEKGLEWVANINFDGSSTYYLDSLKSRFIISRDNAKNILYLQMSSLKSEDTATYYCARDLDGYYGYFDVWGTGTTVTVSS VL: QIVLTQSPAIMSASPGEKVTISCSASSSVSHMYWYQQKPGSSPKPWIYRTSNLASGVPARFSGSGSGTSYSLTISSMEAEDAATYYCQQYHSYPLMFGAGTKLELK	binds
murine antibody 27 (antibody, V domains shown, murine hybridoma antibody) VH: EVKLVESEGGLVQPGSSMKLSCTASGFTFSDYYMAWVRQVPEKGLEWVANINYDGSSTYYLDSLKSRFIISRDNAKNILYLQMSSLKSEDTATYYCARDLDGYYGYFDVWGTGTTVTVSS VL: QIVLTQSPAIMSASPGEKVTISCSASSSVSYMYWYQQKPGSSPKPWIYRTSNLASGVPARFSGSGSGTSYSLTISSMEAEDAATYYCQQYHSYPLTFGAGTKLELK	binds
murine antibody 15 (antibody, V domains shown, murine hybridoma antibody) VH: EFQLQQSGPELVKPGASVKISCKASGYSFTDHNMNWVKQSNGKSLEWIGLINPNYGTADYNQKFKGKATLTVDQSSTTAFMQFTSLTSEDSAVYYCARGSSLFAYWGQGTLVTVSA VL: DIVMTQSHKFMSTSVGDRVNITCKASQGVDTAVAWYQQKPGQSPKLLIYWASTRHTGVPDRFTGSGSGTDFTLTISNVQSEDLADYFCQQYSRYPLTFGAGTKLELK	binds
murine antibody 19 (antibody, V domains shown, murine hybridoma antibody) VH: EVKLVESEGGLVQPGSSMKLSCTASGFTFSDYYMAWVRQVPERGLEWVANINYDGSSTYYLDSLKSRFIISRDNAKNILYLQMSSLKSEDTATYYCARGGDYWDAMDYWGQGTSVTVSS VL: DIQMTQTTSSLSASLGDRVTISCRASQDISKYLNWYQQKPDGTVKLLIYYTSSLHSGVPSRFSGSGSGTDYSLTISNLEQEDIATYFCQQGNRLPRTFGGGTKLEIK	binds
murine antibody 43 (antibody, V domains shown, murine hybridoma antibody) VH: EVKFEESGGGLVQPGGSMKLSCVASGFTFSNYWMNWLRQSPEKGLEWVAQVRLKSDNYATHYAESVKGRFTISRDDSKSSAYLQMNNLRAEDTGIYYCSENYYGPAGPFDFWGQGTTLTVSS VL: DIVMTQSQKFMSTTVGDRVSITCKASQNVHTSVAWYQQKPGQSPKLLIYSASNRYSGVPDRFTGSGSGTDFTLTINNMQSEDLADYFCQQYSSYPLTFGVGTKLELK	binds
murine antibody 46 (antibody, V domains shown, murine hybridoma antibody) VH: EVQLVESGGDLVKPGGSLKLSCAASGFTFSNYGMSWVRQTPDKRIKWVATIGSGGGYTYYSDSVKGRFTISRDNAKNTLYLQMSSLKSEDTAIYYCVRHPQIGYWGQGTLVTVSA VL: DIVMTQSQKFMSTTVGDRVTITCKASQSVGTAVAWYQQKPGQSPKLLIYSASSRYTGVPDRFTGSGSGTDFTLTITNMQSEDLADYFCHQYSSYPLTFGGGTKLEIK	binds
murine antibody 50 (antibody, V domains shown, murine hybridoma antibody) VH: QVQLQQSGAELARPGASVKLSCKASGFTFTNYGISWVKQRTGQGLEWIGEIYPRSGNTYYNTNFKGEATLTADKSSSTAFMELRSLTSEDSAVYFCARNPFTTVVEGFAFWGQGTLVTVSA VL: DVFMTQSPLSLPVSLGDQASISCRSSQSILHSNGNTYLEWYLQKPGQSPKLLIYRVSNRFSGVPDRFSGSGSGTDFTLKISRVEAEDLGVYYCFQGLHVPPTFGAGTKLELK	binds
murine antibody 71 (antibody, V domains shown, murine hybridoma antibody) VH: QVQLVETGGGLVRPGNSLKLSCVTSGFTFSNYRMHWLRQPPGKRLEWIAVITVKSDNYGSSYAESVKGRFAISRDDSKSSVYLEMNRLREEDTATYFCSRELGQVLVFWGQGTLVTVSA VL: DVVVTQTPLSLPVSLGDQASISCRSSQSLVHSYGNTYLHWYLQKPGQSPKLLIYKVSNRFSGVPDRFSGSGSGTDFTLKISRVEAEDLGVYFCSQTTHVPWTFGGGTKLEIK	binds
